Drawing on PMC8260448, this text covers Kd for one molecule.

The target of this series is thrombin (UniProt P00734;P00734 315-363;364-622). The series is described as follows: fluorescence polarization.

In the case of GGTTGGTGTGGTTGG (structured_DNA, T3 replaced by 5-ethynyl-dU clicked to inactivated N-acyl sulfonamide 2b) [TBA(3)-2b], the Kd (in general, the constant that tells how readily two partners part at equilibrium) came out at 395 nM.
